System: Escherichia coli TOP10
Assay: shrunken log2 fold change of peptide-encoding DNA abundance (4.5 h post-induction vs induction); higher = less antimicrobial activity (less host growth inhibition)
Details: time post-induction: 4.5 h; library: site-saturation at positions 5, 18, 19, 20
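Also: peptides expressed intracellularly from a pBAD plasmid library in pooled LB shake-flask culture, induced with 0.3% L-arabinose, DNA abundance read by NGS, three biological replicates, DESeq2 with apeglm shrinkage.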

Sequence: RRIRGRPPRLPRPRPRPATLPRP
- shrunken log2 fold change: 0.393

Sequence: RRIRGRPPRLPRPRPRPGYRPRP
- shrunken log2 fold change: 0.189

Sequence: RRIRTRPPRLPRPRPRPFEQPRP
- shrunken log2 fold change: -0.225

Sequence: RRIRKRPPRLPRPRPRPDWMPRP
- shrunken log2 fold change: 0.00417

Sequence: RRIRSRPPRLPRPRPRPAYYPRP
- shrunken log2 fold change: -0.495

Sequence: RRIRSRPPRLPRPRPRPFGSPRP
- shrunken log2 fold change: -0.178

Sequence: RRIRRRPPRLPRPRPRPMNHPRP
- shrunken log2 fold change: -0.281

Sequence: RRIRHRPPRLPRPRPRPWPTPRP
- shrunken log2 fold change: 0.103

Sequence: RRIRHRPPRLPRPRPRPWSCPRP
- shrunken log2 fold change: -0.0195

Sequence: RRIRKRPPRLPRPRPRPDWPPRP
- shrunken log2 fold change: 0.168

Sequence: RRIRVRPPRLPRPRPRPKFTPRP
- shrunken log2 fold change: -0.0442

Sequence: RRIRLRPPRLPRPRPRPWKYPRP
- shrunken log2 fold change: -0.0875

Sequence: RRIRIRPPRLPRPRPRPNMYPRP
- shrunken log2 fold change: -0.59

Sequence: RRIRIRPPRLPRPRPRPTNNPRP
- shrunken log2 fold change: -0.629

Sequence: RRIRSRPPRLPRPRPRPYIMPRP
- shrunken log2 fold change: -0.845

Sequence: RRIRWRPPRLPRPRPRPRFQPRP
- shrunken log2 fold change: 0.199

Sequence: RRIRSRPPRLPRPRPRPVYLPRP
- shrunken log2 fold change: -0.519

Sequence: RRIRLRPPRLPRPRPRPVYGPRP
- shrunken log2 fold change: -0.183

Sequence: RRIRTRPPRLPRPRPRPNSMPRP
- shrunken log2 fold change: -0.496

Sequence: RRIRIRPPRLPRPRPRPLIWPRP
- shrunken log2 fold change: -0.236

Sequence: RRIRMRPPRLPRPRPRPMHCPRP
- shrunken log2 fold change: 0.0428

Sequence: RRIRSRPPRLPRPRPRPCRMPRP
- shrunken log2 fold change: -0.102

Sequence: RRIRHRPPRLPRPRPRPVYVPRP
- shrunken log2 fold change: -0.158

Sequence: RRIRERPPRLPRPRPRPYHVPRP
- shrunken log2 fold change: 0.0464

Sequence: RRIRRRPPRLPRPRPRPIQFPRP
- shrunken log2 fold change: 0.153

Sequence: RRIRMRPPRLPRPRPRPSHSPRP
- shrunken log2 fold change: -0.266

Sequence: RRIRWRPPRLPRPRPRPVCAPRP
- shrunken log2 fold change: 0.553

Sequence: RRIRPRPPRLPRPRPRPYGNPRP
- shrunken log2 fold change: -0.79

Sequence: RRIRLRPPRLPRPRPRPYIDPRP
- shrunken log2 fold change: -0.00113

Sequence: RRIRRRPPRLPRPRPRPQEVPRP
- shrunken log2 fold change: -0.00192

Sequence: RRIRWRPPRLPRPRPRPGTNPRP
- shrunken log2 fold change: 0.243

Sequence: RRIRTRPPRLPRPRPRPKLFPRP
- shrunken log2 fold change: -0.0805

Sequence: RRIRCRPPRLPRPRPRPASSPRP
- shrunken log2 fold change: 0.124

Sequence: RRIRSRPPRLPRPRPRPCRKPRP
- shrunken log2 fold change: -0.012

Sequence: RRIRARPPRLPRPRPRPPLDPRP
- shrunken log2 fold change: 1

Sequence: RRIRARPPRLPRPRPRPEWVPRP
- shrunken log2 fold change: 0.775

Sequence: RRIRQRPPRLPRPRPRPLIFPRP
- shrunken log2 fold change: -0.432

Sequence: RRIRYRPPRLPRPRPRPVAYPRP
- shrunken log2 fold change: -0.926

Sequence: RRIRPRPPRLPRPRPRPWWHPRP
- shrunken log2 fold change: 0.0413

Sequence: RRIRFRPPRLPRPRPRPVCSPRP
- shrunken log2 fold change: -0.279

Sequence: RRIRYRPPRLPRPRPRPHDTPRP
- shrunken log2 fold change: -0.313

Sequence: RRIRRRPPRLPRPRPRPRHHPRP
- shrunken log2 fold change: 0.0826

Sequence: RRIRLRPPRLPRPRPRPDLFPRP
- shrunken log2 fold change: -0.000844

Sequence: RRIRWRPPRLPRPRPRPFRAPRP
- shrunken log2 fold change: -0.112

Sequence: RRIRRRPPRLPRPRPRPYMQPRP
- shrunken log2 fold change: -0.264

Sequence: RRIRNRPPRLPRPRPRPSAWPRP
- shrunken log2 fold change: -0.135

Sequence: RRIRERPPRLPRPRPRPMNWPRP
- shrunken log2 fold change: 0.0377

Sequence: RRIRVRPPRLPRPRPRPNLWPRP
- shrunken log2 fold change: -0.0401

Sequence: RRIRARPPRLPRPRPRPIEDPRP
- shrunken log2 fold change: -0.0663

Sequence: RRIRRRPPRLPRPRPRPGEIPRP
- shrunken log2 fold change: 0.321

Sequence: RRIRARPPRLPRPRPRPDIWPRP
- shrunken log2 fold change: 0.69

Sequence: RRIRWRPPRLPRPRPRPKRFPRP
- shrunken log2 fold change: 0.729

Sequence: RRIRERPPRLPRPRPRPNLWPRP
- shrunken log2 fold change: 0.0252

Sequence: RRIRCRPPRLPRPRPRPSIKPRP
- shrunken log2 fold change: -0.597

Sequence: RRIRERPPRLPRPRPRPVMPPRP
- shrunken log2 fold change: -0.259

Sequence: RRIRDRPPRLPRPRPRPDLIPRP
- shrunken log2 fold change: 0.126

Sequence: RRIRIRPPRLPRPRPRPAMFPRP
- shrunken log2 fold change: -0.45

Sequence: RRIRDRPPRLPRPRPRPCKHPRP
- shrunken log2 fold change: -0.181

Sequence: RRIRQRPPRLPRPRPRPPKIPRP
- shrunken log2 fold change: 0.156

Sequence: RRIRSRPPRLPRPRPRPPNYPRP
- shrunken log2 fold change: -0.606

— the supplement of paper PMC9112550, “Optimization of the antimicrobial peptide Bac7 by deep mutational scanning” (BMC Biology, 2022)
